These results are taken from patent US8399206B2, “Methods for diagnosis, prognosis and methods of treatment” (Nodality, Inc., priority 2008, dated 2013).

Where a SMILES comes first, the peptide text is derived from it. The star is where a group is joined. Cbz = O=C(OCc1ccccc1)*; CH2F = FC*

Common to all, as to format: cell-based, human
Experiment [1] relates to AML blasts. Description: Functional apoptosis and DNA damage response assay, AML study No. 1 (c-PARP, cleaved caspases, p-Chk2). The procedure:
Multi-parameter flow cytometric analysis was performed on peripheral blasts taken at diagnosis from 9 AML patients who achieved a complete response (CR) and 24 patients who were non-responders (NR) to one cycle of standard 7+3 induction therapy (100-200 mg/m2 cytarabine and 60 mg/m2 daunorubicin). The signaling nodes were organized into 4 biological categories: 1) Protein expression of receptors and drug transporters 2) Response to cytokines and growth factors, 3) Phosphatase activity, and 4) Apoptotic signaling pathways.
A viable cell will be Aqua negative and PARP negative and a measure of cell death is PARP and/or Aqua positivity. “Apoptosis”=% of PARP^−Aqua^−unstim−% of PARP^−Aqua^−Drug.
(§1) Functional assays were performed as previously described. Cells were incubated with modulators (Table 18), at 37° C. for 3-15 minutes, fixed with 1.6% paraformaldehyde (final concentration) for 10 minutes at 37° C., pelleted and permeabilized with 100% ice-cold methanol and stored at −80° C.
The median fluorescence intensity (MFI) was computed for each node from the fluorescence intensity levels for the cells in the myeloid population. The MFI values were then used to compute a variety of metrics by comparing them to baseline or background values, including the unmodulated condition, cellular autofluorescence and antibody isotype controls. The following metrics were computed: • 1. Basal MFI (“Basal”)=log2(MFIUnmodulated Stained)−log2(MFIGated Unstained (Autofluoresence)), designed to measure the basal levels of a certain protein under unmodulated conditions. • 2. Fold Change MFI (“Fold”)=log2(MFIModulated Stained)−log2(MFIUnmodulated Stained), a measure of the change in the activation state of a protein under modulated conditions. • 3. Total Phospho MFI (“TotalPhospho”)=log2(MFIModulated Stained)−log2(MFIGated Unstained (Autofluorescence)), a measure of the total levels of a protein under modulated conditions. • 4. Relative Protein Expression (“Rel. Expression”)=log2(MFIstain)−log2(MFIControl), a measure of the levels of surface marker staining relative to control antibody staining. • 5. […] An additional metric was designed to measure the levels of cellular apoptosis in response to cytotoxic drugs: Quadrant (“Quad”)=a measure of the percentage of cells in a flow cytometry quadrant region defined by p-Chk2 and c-PARP i.e. the % of cells that are both p-Chk2- and c-PARP+.

Experiment [2] deals with AML blasts. Description: SCNP / phospho-flow modulated signaling assay, AML study No. 1 (PBMC at diagnosis, CR vs NR). The conditions noted are these: Study No. 1 sensitivity analysis. The text has this:
The present illustrative example represents how to analyze cells in one embodiment of the present invention. There are several steps in the process, such as the stimulation step, the staining step and the flow cytometry step. The stimulation step of the phospho-flow procedure can start with vials of frozen cells and end with cells fixed and permeabilized in methanol. Then the cells can be stained with an antibody directed to a particular protein of interest and then analyzed using a flow cytometer.
Frozen cells are thawed in a 37° C. water bath and gently resuspended in the vial and transferred to the 15 mL conical tube. The 15 mL tube is centrifuged at 930 RPM (200×g) for 8 minutes at room temperature. The supernatant is aspirated and the pellet is gently resuspended in 1 mL media A. The cell suspension is filtered through a 70 um cell strainer into a new 15 mL tube. The cell strainer is rinsed with 1 mL media A and another 12 ml of media A into the 15 mL tube. The cells are mixed into an even suspension. A 20 μL aliquot is immediately removed into a 96-well plate containing 180 μL PBS+4% FBS+CD45 Alexa 700+PI to determine cell count and viability post spin. After the determination, the 15 mL tubes are centrifuged at 930 RPM (200×g) for 8 minutes at room temperature. The supernatant is aspirated and the cell pellet is gently resuspended in 4 mL PBS+4 μL Amine Aqua and incubated for 15 min in a 37° C. incubator. 10 mL RPMI+1% FBS is added to the cell suspension and the tube is inverted to mix the cells. The 15 mL tubes are centrifuged at 930 RPM (200×g) for 8 minutes at room temperature. The cells are resuspended in Media A at the desired cell concentration (1.25×10^6/mL). For samples with low numbers of cells (<18.5×10^6), the cells are resuspended in up to 15 mL media. For samples with high numbers of cells (>18.5×10^6), the volume is raised to 10 mL with media A and the desired volume is transferred to a new 15 mL tube, and the cell concentration is adjusted to 1.25×10^6 cells/ml. 1.6 mL of the above cell suspension (concentration at 1.25×10^6 cells/ml) is transferred into wells of a multi-well plate. From this plate, 80 ul is dispensed into each well of a subsequent plate. The plates are covered with a lid (Nunc) and placed in a 37° C. incubator for 2 hours to rest.
A concentration for each stimulant that is five folds more (5×) than the final concentration is prepared using Media A as diluent. 5× stimuli are arrayed into wells of a standard 96 well v-bottom plate that correspond to the wells on the plate with cells to be stimulated.
Adding the stimulant: The cell plate(s) are taken out of the incubator and placed in a 37° C. water bath next to the pipette apparatus. The cell plate is taken from the water bath and gently swirled to resuspend any settled cells. With pipettor, the stimulant is dispensed into the cell plate and vortexed at “7” for 5 seconds. The deep well plate is put back into the water bath.
Adding Fixative: 200 μl of the fixative solution (final concentration at 1.6%) is dispensed into wells and then mixed on the titer plate shaker on high for 5 seconds. The plate is covered with foil sealer and incubated in a 37° C. water bath for 10 minutes. The plate is spun for 6 minutes at 2000 rpm at room temperature. The cells are aspirated using a 96 well plate aspirator (VP Scientific). The plate is vortexed to resuspend cell pellets in the residual volume. The pellet is ensured to be dispersed before the Methanol step (see cell permeabilization) or clumping will occur.
Cell Permeabilization: Permeability agent, for example methanol, is added slowly and while the plate is vortexing. To do this, the cell plate is placed on titer plate shaker and made sure it is secure. The plate is set to shake using the highest setting. A pipetter is used to add 0.6 mls of 100% methanol to the plate wells. The plate(s) are put on ice until this step has been completed for all plates.

In the next experiment the test system is AML BMMC leukemic blasts. Description: SCNP modulated signaling assay, AML study No. 2 (BMMC, CR vs NR, clinical sub-groups). Conditions: Study No. 2, all patients. How it is done: Two independent sets of cryopreserved samples were analyzed sequentially. The first set consisted of 35 peripheral blood mononuclear cell (PBMC) samples derived from AML patients. The second set consisted of 134 cryopreserved bone marrow mononuclear cell (BMMC) samples derived from AML patients. These samples were the same samples used in the previous examples. Sample inclusion criteria required collection prior to initiation of induction chemotherapy, AML classification by the French-American-British (FAB) criteria as M0 through M7 (excluding M3) and availability of clinical annotations.
In the first study, induction chemotherapy consisted of at least one cycle of standard cytarabine-based induction therapy (i.e. daunorubicin 60 mg/m^2×3 days, cytarabine 100-200 mg/m^2 continuous infusion×7 days); responses were measured after one cycle of induction therapy. In the second study, cytarabine (200 mg/m^2 to 3 g/m^2) was used in combination with an anthracycline (daunorubicin or idarubicin) or an additional anti-metabolite (e.g. fludarabine or troxacitabine), and sometimes, an experimental agent (Table 16). […] Standard clinical and laboratory criteria were used for defining complete response (CR) in both studies. […] Classified as “CRp,” these samples were included in the CR group for all primary analysis. The univariate analyses were also repeated with the CRp patients classified into the NR sample group for sensitivity analysis.
Cyropreserved samples were thawed at […], washed and centrifuged in PBS, 10% FBS and 2 mM EDTA. The cells were re-suspended, filtered to remove debris and washed in RPMI cell culture media, 1% FBS, then stained with Live/Dead Fixable Aqua Viability Dye to distinguish non-viable cells. The cells were then re-suspended in RPMI, 1% FBS, aliquoted to 100,000 cells/condition and rested for 1-2 hours at 37° C. prior to SCNP assays. Each condition included two to five phenotypic markers for cell population gating (eg, CD45, CD33), up to three intracellular stains or up to three additional surface markers or control antibodies for an eight-color flow cytometry assay.
as §1
Data was acquired using FACS DIVA software on both LSR II and CANTO II Flow Cytometers (BD). For all analyses, dead cells and debris were excluded by forward scatter (FSC), side scatter (SSC), and Amine Aqua Viability Dye measurement. Leukemic cells were identified as cells that lacked the characteristics of mature lymphocytes (CD45^++, CD33^−) and that fit the CD45 and CD33 versus right-angle light-scatter characteristics consistent with myeloid leukemia cells.
The median fluorescence intensity (MFI) was computed for each node from the fluorescence intensity levels for the cells in the myeloid population. The MFI values were then used to compute a variety of metrics by comparing them to baseline or background values, including the unmodulated condition, cellular autofluorescence and antibody isotype controls. The following metrics were computed: • 1. Basal MFI (“Basal”)=log2(MFIUnmodulated Stained)−log2(MFIGated Unstained (Autofluoresence)), designed to measure the basal levels of a certain protein under unmodulated conditions. • 2.

As for `CN[C@@H]1C[C@H]2O[C@@](C)([C@@H]1OC)n1c3ccccc3c3c4c(c5c6ccccc6n2c5c31)C(=O)NC4` [Staurosporine], in the experiment on AML blasts [1], the “cell death as determined by cleaved PARP and cleaved Caspase 8” value is given as “failed to undergo cell death”; the “cleaved PARP and caspase 8” value was “significant populations of cells with cleaved PARP and caspase 8”; the “in vitro apoptotic response in the context of FLT3 mutations” value was “greatest apoptotic responses were those that expressed FLT3 ITD”; the “phosphorylated Chk2” value is reported as “increase in phosphorylated Chk2”.
For the molecule `COC(=O)CC(NC(=O)C(C)NC(=O)C(NC(=O)OCc1ccccc1)C(C)C)C(=O)CF` (stereo not drawn) [Z-VAD, benzyloxycarbonyl-Val-Ala-Asp (OMe) fluoromethylketone] (Cbz-Val-Ala-Asp(OMe)-CH2F; configuration not given here), the “cleavage of caspase 3 and PARP on co-incubation with Z-VAD” value in the experiment with AML blasts [1] (samples 0341, 0521) is “inhibited cleavage of caspase 3 and PARP to near completion”. For the same molecule, the “PARP cleavage on co-incubation with Z-VAD” value with AML blasts [1] (samples 8303, 8402) is reported as “only partially inhibited”.

B1: IFNg: interferon gamma, cytokine modulator (protein, UniProt P01579 24-161, looked up)
Interferon gamma: QDPYVKEAENLKKYFNAGHSDVADNGTLFLGILKNWKEESDRKIMQSQIVSFYFKLFKNFKDDQSIQKSVETIKEDMNVKFFNSNKKKRDDFEKLTNYSVTDLNVQRKAIHELIQVMAELSPAAKTGKRKRSQMLFRG
As for B1, in the experiment with AML blasts [2] (CR samples), the “Mean Value of CRs, p-Stat1 Fold” value is 0.45; the “Mean Value of CRs, p-Stat1 Total Phospho” value was 0.67; the “Mean Value of CRs, p-Stat3 Total Phospho” value was 0.68; the “Mean Value of CRs, p-Stat5 Total Phospho” value worked out at 1.62. Moreover, in the experiment on AML blasts [2] (NR samples incl. CRp), the “Mean Value of NRs, p-Stat1 Total Phospho” value turned out to be 1.27; the “Mean Value of NRs, p-Stat3 Total Phospho” value turned out to be 1.3; the “Mean Value of NRs, p-Stat5 Total Phospho” value was determined as 2.35. For the same molecule, the “Mean Value of NRs, p-Stat1 Fold” value in the experiment with AML blasts [2] (NR samples incl. CRp, negative = down regulation) worked out at 0.91. The “Mean Value of CRs, p-Stat3 Fold” value in the experiment with AML BMMC leukemic blasts (CR samples, negative = down regulation) is −0.02. In addition, the “Mean Value of NRs, p-Stat3 Fold” value in the experiment with AML BMMC leukemic blasts (NR samples) was determined as 0.2.
